Conditions in all cases: both partners purified
Assay [1] has as its target T1, N-terminally tagged P672 (P672_RHIPU), glycosylated (Rhipicephalus pulchellus, UniProt L7MC74 22-125).
T1 construct: source: HEK293F, transiently transfected, purified from culture supernatant (nickel IMAC, size exclusion chromatography)
T1 sequence: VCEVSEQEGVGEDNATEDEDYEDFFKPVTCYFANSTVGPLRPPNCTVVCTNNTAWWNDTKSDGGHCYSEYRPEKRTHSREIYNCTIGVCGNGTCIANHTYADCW
In words: BLI. In general terms: BLI is a label-free optical method that tracks binding on a fibre tip over time.

Assay [2] addresses T2, partially deglycosylated N-terminally tagged P672 (Rhipicephalus pulchellus, UniProt L7MC74 22-125).
T2 sequence: T1 sequence
Description: BLI.

Assay [3] has as its target T3, P672 with residues Val-1—Thr-16 truncated (Rhipicephalus pulchellus, UniProt L7MC74 38-125).
T3 sequence: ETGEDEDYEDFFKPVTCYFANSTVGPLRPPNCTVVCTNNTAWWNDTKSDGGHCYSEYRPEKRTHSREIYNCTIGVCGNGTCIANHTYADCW
Description: BLI.

Assay [4] has as its target T2, partially deglycosylated N-terminally …. Description: native MS.

B1: CCL11 (ligand)
chain: not shown
In the case of B1, the Kd (as a rule, the equilibrium constant for the complex coming apart) in assay [1] was less than 10 nM.

B2: CCL23 (ligand, human, UniProt P55773 22-120, looked up)
chain: RVTKDAETEFMMSKLPLENPVLLDRFHATSADCCISYTPRSIPCSLLESYFETNSECSKPGVIFLTKKGRRFCANPSDKQVQVCMRMLKLDTRIKTRKN
In turn, B2 displayed a Kd in assay [1] of less than 10 nM.

B3: CCL1 (ligand, human, UniProt P22362 24-96, looked up)
chain: KSMQVPFSRCCFSFAEQEIPLRAILCYRNTSSICSNEGLIFKLKRGKEACALDTVGWVQRHRKMLRHCPSKRK
Consider B3, for which the binding result in assay [1] was “binds”.

B4: CCL3 (ligand, human, UniProt P10147 24-92, looked up)
chain: SLAADTPTACCFSYTSRQIPQNFIADYFETSSQCSKPGVIFLTKRSRQVCADPSEEWVQKYVSDLELSA
Turning to B4, the binding result in assay [1] is on record as “binds”.

B5: CCL14 (ligand, human, UniProt Q16627 20-93, looked up)
chain: TKTESSSRGPYHPSECCFTYTTYKIPRQRIMDYYETNSQCSKPGIVFITKRGHSVCTNPSDKWVQDYIKDMKEN
Take B5: the Kd in assay [1] was less than 10 nM.

B6: CCL18 (ligand, human, UniProt P55774 21-89, looked up)
chain: AQVGTNKELCCLVYTSWQIPQKFIVDYSETSPQCPKPGVILLTKRGRQICADPNKKWVQKYISDLKLNA
For the molecule B6, in assay [1], the Kd was less than 10 nM.

B7: CCL8 (human chemokine panel) (ligand, UniProt P80075 24-99, looked up)
chain: QPDSVSIPITCCFNVINRKIPIQRLESYTRITNIQCPKEAVIFKTKRGKEVCADPKERWVRDSMKHLDQIFQNLKP
notes: also called MCP-2
As to B7, the Kd in assay [2] is 72.5 nM; in assay [3] it was 30.4 nM.

B8: human CCL8 (residues Gln-24 to Pro-99), expressed in E. coli (ligand, UniProt P80075 24-99, looked up)
chain: B7 chain
notes: also called Purified CCL8
As to B8, in assay [4], the stoichiometry N (in general, a count of units in the complex or per binding partner) was 1.

B9: CCL16 (ligand, human, UniProt O15467 24-120, looked up)
chain: QPKVPEWVNTPSTCCLKYYEKVLPRRLVVGYRKALNCHLPAIIFVTKRNREVCTNPNDDWVQEYIKDPNLPLLPTRNLSTVKIITAKNGQPQLLNSQ
Consider B9, for which, in assay [1], the binding result is listed as “binds”.

B10: CCL3L1 (ligand, human, UniProt P16619 24-93, looked up)
chain: APLAADTPTACCFSYTSRQIPQNFIADYFETSSQCSKPSVIFLTKRGRQVCADPSEEWVQKYVSDLELSA
Take B10: in assay [1], the binding result is “binds”.

B11: CCL7 (ligand)
chain: not shown
notes: also called MCP-3
In the case of B11, in assay [1], the binding result is “binds”.

For the origin of these results see PMC5912465, “The N-terminal domain of a tick evasin is critical for chemokine binding and neutralization and confers specific binding activity to other evasins” (The Journal of Biological Chemistry, 2018).
